These results are taken from the supplement of paper PMC10126150.

The test system of this series is ATP. Kind of series: switch fluorescence ratio, 500 uM ATP over buffer (Cy3 cluster intensity, sum of 5 cycles each) (fold (ratio)); higher = stronger signal-on switching upon ATP binding; sequences stand for … in TCGTCGGCAGCGTCAGATGTGTATAAGAGACAGTTTTTTTTTTTTTTTTTTTTTTTTT…TC. To be noted: aptamer strand: ATP DNA aptamer (quencher-CACCTGGGGGAGTATTGCGGAGGAAGG + anchor), 100 nM annealed; ATP concentration: 500 uM. Put shortly: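 Exposure to 500 uM ATP lasted 15 min at 22 °C before imaging, and a selection-buffer image was taken beforehand, for Cy3-labelled switching-strand clusters on a modified Illumina MiSeq flow-cell annealed to 100 nM quencher-labelled ATP aptamer. Five buffer/ATP cycles were run with NaOH stripping and re-annealing between them. The fluorescence ratio per cluster is summed target-cycle over summed buffer-cycle Cy3 intensity, averaged per switch-domain sequence. Clusters outside 100-1000 RFU were excluded.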

± gives the standard deviation of the averaged measurements.

As for TGTGGGTTGG, the switch fluorescence ratio was 0.956 ± 0.018.
Consider TTAGGCACAA, for which the switch fluorescence ratio stood at 1.03 ± 0.038.
On to TTTGAGTGTG, for which the switch fluorescence ratio was determined as 0.997 ± 0.03.
TACCACTGCG: the switch fluorescence ratio was 1.04 ± 0.029.
As to GGGGCGGGTA, the switch fluorescence ratio was determined as 1 ± 0.078.
Consider GGTAGGGGTG, for which the switch fluorescence ratio was 1.07 ± 0.033.
As for GGCGCTGGAT, the switch fluorescence ratio was determined as 1.02 ± 0.019.
On to ACCCCGGTCG, for which the switch fluorescence ratio came to 1.167 ± 0.0062.
Consider TTATCGAATT, for which the switch fluorescence ratio is 1 ± 0.025.
For TGTTTGAGAT, the switch fluorescence ratio was determined as 1.01 ± 0.015.
Consider TAAAATCGGG, for which the switch fluorescence ratio was 0.958 ± 0.023.
As for AGTTGAAGTT, the switch fluorescence ratio worked out at 1.02 ± 0.039.
Under TCATCAGTGA stands 0.998 ± 0.028.
Turning to TTAGAGCTAG, the switch fluorescence ratio worked out at 1.07 ± 0.09.
Regarding TTTATGCTGT, the switch fluorescence ratio amounted to 0.976 ± 0.02.
For TGGATTTAGA, the switch fluorescence ratio turned out to be 1.02 ± 0.017.
With CTGGTCTTGC, the switch fluorescence ratio came out at 1.04 ± 0.035.
On to TGGGTAGTAC, for which the switch fluorescence ratio was determined as 1.04 ± 0.039.
For the sequence GGGGGCAACG, the switch fluorescence ratio amounted to 1.03 ± 0.1.
With TTTTTAAAAG, the switch fluorescence ratio came out at 0.988 ± 0.011.
For CATGGATAGC, the switch fluorescence ratio came out at 0.963 ± 0.012.
Regarding CAGAGAAAGT, the switch fluorescence ratio is 0.973 ± 0.038.
Regarding AGAAAAATGC, the switch fluorescence ratio turned out to be 1.04 ± 0.088.
Regarding GGCATTGGGG, the switch fluorescence ratio turned out to be 1.03 ± 0.029.
Under GTTTTTGGCG stands 0.94 ± 0.16.
As for CCGGGAGTTG, the switch fluorescence ratio was found to be 1.01 ± 0.024.
On to TGAGAAATTA, for which the switch fluorescence ratio is 1.05 ± 0.014.
With CGGAGACCGT, the switch fluorescence ratio amounted to 1 ± 0.022.
As to GGGCAATGCT, the switch fluorescence ratio worked out at 3.33 ± 3.1.
Turning to CGCGAGGCGT, the switch fluorescence ratio turned out to be 1.07 ± 0.12.
In the case of GATGTCAGGG, the switch fluorescence ratio worked out at 1.05 ± 0.021.
Take GCCGACGGTG: the switch fluorescence ratio was 1 ± 0.019.
Turning to CAATTTCGTT, the switch fluorescence ratio came out at 1.01 ± 0.021.
Regarding TCAGCATGGT, the switch fluorescence ratio worked out at 1.04 ± 0.091.
Take ATAGCTGTTA: the switch fluorescence ratio was found to be 0.978 ± 0.05.
Under TGGGAACTCG stands 0.99483 ± 0.00048.
The result for ACTGGGGGGG reads 0.995 ± 0.03.
On to ATGAATGAAC, for which the switch fluorescence ratio was found to be 1.03 ± 0.063.
For TGACGCCGGG, the switch fluorescence ratio came to 0.98 ± 0.018.
As to AGGGGCCATT, the switch fluorescence ratio stood at 1.009 ± 0.0098.
For the sequence GTTTGGTCGG, the switch fluorescence ratio came to 1.04 ± 0.035.
Turning to AATGTAATCA, the switch fluorescence ratio was 0.997 ± 0.024.
On to AAAGGCTGAA, for which the switch fluorescence ratio worked out at 1.03 ± 0.048.
Turning to TGCCGGGTGG, the switch fluorescence ratio was 1 ± 0.063.
Consider TTTGTATTTT, for which the switch fluorescence ratio is 0.992 ± 0.026.
On to GGAAGGTACG, for which the switch fluorescence ratio was found to be 0.9856 ± 0.0062.
Take GTGCTTCTTA: the switch fluorescence ratio came out at 0.992 ± 0.025.
In the case of GTGGGGATGT, the switch fluorescence ratio turned out to be 1.01 ± 0.024.
Turning to TGGACTTGGG, the switch fluorescence ratio was 0.983 ± 0.023.
For AGGGAGTTTG, the switch fluorescence ratio is 0.983 ± 0.021.
Turning to ATGAGTCATC, the switch fluorescence ratio is 0.981 ± 0.034.
Regarding CCAGTGGTTG, the switch fluorescence ratio stood at 0.9817 ± 0.0056.
With TCGGCGTTCA, the switch fluorescence ratio came to 1.02 ± 0.02.
For the sequence GTATGTGTGC, the switch fluorescence ratio is 0.96 ± 0.03.
Take TTGTAAGGAT: the switch fluorescence ratio amounted to 1.02 ± 0.013.
The result for ACGTCGCGGG reads 0.9877 ± 0.0019.
Under TTGATTGGTC stands 1.05 ± 0.019; under CGACAAAAAT, 1.89 ± 1.
Consider ATGGGCCCCT, for which the switch fluorescence ratio amounted to 0.987 ± 0.025.
Turning to TGGCTTAGGA, the switch fluorescence ratio came out at 0.979 ± 0.012.
Under CGGGTGCGTG stands 0.981 ± 0.017.
As to AGTAAGAGCA, the switch fluorescence ratio stood at 1.01 ± 0.011.
For TATTGACTAG, the switch fluorescence ratio stood at 1.03 ± 0.059.
Under TGGGGGGCCT stands 0.991 ± 0.02; under AGTATAAAAT, 1.01 ± 0.018; under TTAGTAAAGG, 1.01 ± 0.041.
On to GTTGGGATGT, for which the switch fluorescence ratio was 0.996 ± 0.015.
As to GAATATAATG, the switch fluorescence ratio came to 0.978 ± 0.032.
Turning to ACGATAACTT, the switch fluorescence ratio is 1.21 ± 0.034.
With GGATTGGACG, the switch fluorescence ratio came to 0.976 ± 0.016.
For ATCTCAATTT, the switch fluorescence ratio was 0.967 ± 0.027.
In the case of TTACTTGGCT, the switch fluorescence ratio was found to be 1.01 ± 0.032.
Turning to AAGAGTATCT, the switch fluorescence ratio is 1.01 ± 0.013.
For TATGACGCAG, the switch fluorescence ratio came to 0.993 ± 0.011.
Turning to AATATTGAAG, the switch fluorescence ratio was determined as 1 ± 0.018.
On to AGTAATTTTT, for which the switch fluorescence ratio was 1 ± 0.018.
Consider ACCCAAATCA, for which the switch fluorescence ratio stood at 1.04 ± 0.019.
Take AGTATGTTTT: the switch fluorescence ratio is 0.995 ± 0.0076.
With TAGGAAGAGG, the switch fluorescence ratio worked out at 0.986 ± 0.0068.
Under ACATAGAACG stands 1.06 ± 0.038.
As to CGGCGTAGGG, the switch fluorescence ratio is 1.12 ± 0.15.
As to TTCCATGCGG, the switch fluorescence ratio was determined as 1.02 ± 0.037.
ACGGTTAGTC: the switch fluorescence ratio worked out at 1.04 ± 0.016.
In the case of GGGGGGGTG, the switch fluorescence ratio was 1.04 ± 0.013.
The result for ATAGGGTGCG reads 1 ± 0.03.
Consider GGGTGTTCGT, for which the switch fluorescence ratio was 1.004 ± 0.0028.
Turning to GACCCGCCAA, the switch fluorescence ratio came out at 4.89 ± 1.
For TTATCCGGAT, the switch fluorescence ratio was 0.933 ± 0.11.
As to CGATGATCGG, the switch fluorescence ratio was 1 ± 0.016.
In the case of TGGTGTATGT, the switch fluorescence ratio is 0.995 ± 0.022.
In the case of TTTCGGTTCT, the switch fluorescence ratio amounted to 0.991 ± 0.012.
For GGATTGTAAT, the switch fluorescence ratio is 0.9956 ± 0.0034.
With AGAGAAAAAG, the switch fluorescence ratio came to 0.957 ± 0.042.
As for TTTTTGGCAG, the switch fluorescence ratio amounted to 0.971 ± 0.024.
Under ACCCTGGTAT stands 1.02 ± 0.017; under TGAATATAGT, 1.004 ± 0.0042; under CCAATGTACT, 1.36 ± 0.05.
On to TGAGGCAGGG, for which the switch fluorescence ratio is 1.037 ± 0.0042.
Consider CAACTATTGC, for which the switch fluorescence ratio worked out at 1.04 ± 0.036.
Take CGGAATGGTT: the switch fluorescence ratio worked out at 1.04 ± 0.036.
Under TCGTGATTGG stands 1.007 ± 0.0097.
Take TGGGGACCCA: the switch fluorescence ratio came out at 0.991 ± 0.018.
Consider TATGTACGTT, for which the switch fluorescence ratio amounted to 1.04 ± 0.051.
Consider AGTCGTTGGG, for which the switch fluorescence ratio came out at 0.984 ± 0.015.
In the case of TAAAACTAAA, the switch fluorescence ratio amounted to 0.9977 ± 0.0012.
For the sequence TCCCTGGTAT, the switch fluorescence ratio was determined as 1.04 ± 0.014.
For the sequence GCCAGGCACT, the switch fluorescence ratio worked out at 1.005 ± 0.0077.
With GTCAGTGCTA, the switch fluorescence ratio came to 1.0169 ± 0.001.
The result for GCTGAAGGCT reads 0.962 ± 0.03; that for ATTTTCCTTT, 1.02 ± 0.039.
Under AGACCGAGTT stands 1.08 ± 0.096; under TAAAAGTGTT, 1.07 ± 0.059.
For TAATTTCGGG, the switch fluorescence ratio is 0.986 ± 0.013.
The result for TTGTACGCCA reads 1.31 ± 0.19; that for CGGCTAAGGG, 0.981 ± 0.014.
As to GGTCAAGTGG, the switch fluorescence ratio stood at 1 ± 0.02.
For TTTCGGGGCA, the switch fluorescence ratio was determined as 1.02 ± 0.034.
TAAAGATGAG: the switch fluorescence ratio is 1.0091 ± 0.00022.
For the sequence AGGGGGAGGC, the switch fluorescence ratio stood at 1.01 ± 0.076.
On to GTATGGATGT, for which the switch fluorescence ratio worked out at 1.007 ± 0.0043.
